Measurements from PMC7352350, “Molecular Interactions Stabilizing the Promatrix Metalloprotease-9·Serglycin Heteromer” (International Journal of Molecular Sciences, 2020).

T1: recombinant human His-tagged serglycin (human, UniProt P10124 28-158)
T1 construct: serglycin core protein, human, the tag stands instead of the signal peptide; no GAG chains; numbers count on: the mature protein (1-131); also called Ht-SG; SG core protein; source: bought: ProSpec (produced in Escherichia coli)
T1 sequence (looked up): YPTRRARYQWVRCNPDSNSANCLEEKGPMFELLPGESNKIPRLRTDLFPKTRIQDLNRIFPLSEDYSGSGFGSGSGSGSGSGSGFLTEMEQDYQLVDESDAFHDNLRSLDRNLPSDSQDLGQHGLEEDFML

B1: FnII peptide 19 (peptide, UniProt P14780 261-280, looked up)
peptide: NYDTDDRFGFCPSERLYTQD
notes: MMP-9 FnII module (A225-D390), spot 19 of the 20-mer walk with two-residue shift; source: synthetic peptide on a cellulose membrane
B2: HPX peptide 76 (peptide, UniProt P14780 671-690, looked up)
peptide: AYFCQDRFYWRVSSRSELNQ
notes: MMP-9 HPX domain (F521-D707), spot 76 of the 20-mer walk with two-residue shift; source: synthetic peptide on a cellulose membrane
B3: FnII peptide 18 (peptide, UniProt P14780 259-278, looked up)
peptide: TANYDTDDRFGFCPSERLYT
notes: MMP-9 FnII module (A225-D390), spot 18 of the 20-mer walk with two-residue shift; source: synthetic peptide on a cellulose membrane
B4: HPX peptide 38 (peptide, UniProt P14780 595-614, looked up)
peptide: VLGPRRLDKLGLGADVAQVT
notes: MMP-9 HPX domain (F521-D707), spot 38 of the 20-mer walk with two-residue shift; source: synthetic peptide on a cellulose membrane
B5: HPX peptide 11 (peptide, UniProt P14780 541-560, looked up)
peptide: RFSEGRGSRPQGPFLIADKW
notes: MMP-9 HPX domain (F521-D707), spot 11 of the 20-mer walk with two-residue shift; source: synthetic peptide on a cellulose membrane
B6: HPX peptide 10 (peptide, UniProt P14780 539-558, looked up)
peptide: YWRFSEGRGSRPQGPFLIAD
notes: MMP-9 HPX domain (F521-D707), spot 10 of the 20-mer walk with two-residue shift; source: synthetic peptide on a cellulose membrane
B7: HPX peptide 19 (peptide, UniProt P14780 557-576, looked up)
peptide: ADKWPALPRKLDSVFEERLS
notes: MMP-9 HPX domain (F521-D707), spot 19 of the 20-mer walk with two-residue shift; source: synthetic peptide on a cellulose membrane
B8: FnII peptide 64 (peptide, UniProt P14780 351-370, looked up)
peptide: FTFLGKEYSTCTSEGRGDGR
notes: MMP-9 FnII module (A225-D390), spot 64 of the 20-mer walk with two-residue shift; source: synthetic peptide on a cellulose membrane
B9: FnII peptide 16 (peptide, UniProt P14780 255-274, looked up)
peptide: WCSTTANYDTDDRFGFCPSE
notes: MMP-9 FnII module (A225-D390), spot 16 of the 20-mer walk with two-residue shift; source: synthetic peptide on a cellulose membrane
B10: HPX peptide 85 (peptide, UniProt P14780 688-707, looked up)
peptide: LNQVDQVGYVTYDILQCPED
notes: MMP-9 HPX domain (F521-D707), last spot (85) of the 20-mer walk; source: synthetic peptide on a cellulose membrane
B11: FnII peptide 65 (peptide, UniProt P14780 353-372, looked up)
peptide: FLGKEYSTCTSEGRGDGRLW
notes: MMP-9 FnII module (A225-D390), spot 65 of the 20-mer walk with two-residue shift; source: synthetic peptide on a cellulose membrane
B12: FnII peptide 20 (peptide, UniProt P14780 263-282, looked up)
peptide: DTDDRFGFCPSERLYTQDGN
notes: MMP-9 FnII module (A225-D390), spot 20 of the 20-mer walk with two-residue shift; source: synthetic peptide on a cellulose membrane
B13: SG peptide 26 (peptide, UniProt P10124 78-97, looked up)
peptide: TRIQDLNRIFPLSEDYSGSG
notes: serglycin core protein, spot 26 of the 20-mer walk with two-residue shift; numbers count on: the mature protein (1-131); source: synthetic peptide on a cellulose membrane
B14: SG peptide 27 (peptide, UniProt P10124 80-99, looked up)
peptide: IQDLNRIFPLSEDYSGSGFG
notes: serglycin core protein, spot 27 of the 20-mer walk with two-residue shift; numbers count on: the mature protein (1-131); source: synthetic peptide on a cellulose membrane
B15: SG peptide 22 (peptide, UniProt P10124 70-89, looked up)
peptide: LRTDLFPKTRIQDLNRIFPL
notes: serglycin core protein, spot 22 of the 20-mer walk with two-residue shift; numbers count on: the mature protein (1-131); source: synthetic peptide on a cellulose membrane
B16: SG peptide 14 (peptide, UniProt P10124 54-73, looked up)
peptide: GPMFELLPGESNKIPRLRTD
notes: serglycin core protein, spot 14 of the 20-mer walk with two-residue shift; numbers count on: the mature protein (1-131); source: synthetic peptide on a cellulose membrane
B17: SG peptide 15 (peptide, UniProt P10124 56-75, looked up)
peptide: MFELLPGESNKIPRLRTDLF
notes: serglycin core protein, spot 15 of the 20-mer walk with two-residue shift; numbers count on: the mature protein (1-131); source: synthetic peptide on a cellulose membrane
B18: SG peptide 48 (peptide, UniProt P10124 122-141, looked up)
peptide: LVDESDAFHDNLRSLDRNLP
notes: serglycin core protein, spot 48 of the 20-mer walk with two-residue shift; numbers count on: the mature protein (1-131); source: synthetic peptide on a cellulose membrane
B19: SG peptide 25 (peptide, UniProt P10124 76-95, looked up)
peptide: PKTRIQDLNRIFPLSEDYSG
notes: serglycin core protein, spot 25 of the 20-mer walk with two-residue shift; numbers count on: the mature protein (1-131); source: synthetic peptide on a cellulose membrane
B20: SG peptide 6 (peptide, UniProt P10124 38-57, looked up)
peptide: VRCNPDSNSANCLEEKGPMF
notes: serglycin core protein, spot 6 of the 20-mer walk with two-residue shift; numbers count on: the mature protein (1-131); source: synthetic peptide on a cellulose membrane
B21: SG peptide 47 (peptide, UniProt P10124 120-139, looked up)
peptide: YQLVDESDAFHDNLRSLDRN
notes: serglycin core protein, spot 47 of the 20-mer walk with two-residue shift; numbers count on: the mature protein (1-131); source: synthetic peptide on a cellulose membrane
B22: SG peptide 24 (peptide, UniProt P10124 74-93, looked up)
peptide: LFPKTRIQDLNRIFPLSEDY
notes: serglycin core protein, spot 24 of the 20-mer walk with two-residue shift; numbers count on: the mature protein (1-131); source: synthetic peptide on a cellulose membrane
B23: SG peptide 23 (peptide, UniProt P10124 72-91, looked up)
peptide: TDLFPKTRIQDLNRIFPLSE
notes: serglycin core protein, spot 23 of the 20-mer walk with two-residue shift; numbers count on: the mature protein (1-131); source: synthetic peptide on a cellulose membrane
B24: SG peptide 21 (peptide, UniProt P10124 68-87, looked up)
peptide: PRLRTDLFPKTRIQDLNRIF
notes: serglycin core protein, spot 21 of the 20-mer walk with two-residue shift; numbers count on: the mature protein (1-131); source: synthetic peptide on a cellulose membrane

biological target: T1, recombinant human His-tagged serglycin; assay: peptide or protein array; 20-mer walks of the MMP-9 FnII module and HPX domain on cellulose, two-residue shift; 10 uL of 1 ng/uL Ht-SG in 10 mL blocking buffer, 1-4 h, room temperature; antibodies against SG; details: both partners purified

binding result | Binder
binds | B1
binds | B2
binds | B3
binds | B4
binds | B5
binds | B6
binds | B7
binds | B8
binds | B9
binds | B10
binds | B11
binds | B12

biological target: T2, recombinant proMMP-9 lacking the HPX domain (human, UniProt P14780 20-515); assay: peptide or protein array; 20-mer walk of the SG core protein on cellulose, two-residue shift; 8.8 ul of 11.2 ug/mL proMMP-9 in 10 mL blocking buffer, 1-4 h, room temperature; antibody against MMP-9; details: both partners purified
T2 construct: MMP-9 proenzyme, human; stop codon behind the codon for A515; the mature proenzyme starts at 20; also called rpMMP-9ΔHPX; proMMP-9ΔHPX; source: Sf9, baculovirus, purified (gelatin-Sepharose)
T2 sequence (P14780 20-515): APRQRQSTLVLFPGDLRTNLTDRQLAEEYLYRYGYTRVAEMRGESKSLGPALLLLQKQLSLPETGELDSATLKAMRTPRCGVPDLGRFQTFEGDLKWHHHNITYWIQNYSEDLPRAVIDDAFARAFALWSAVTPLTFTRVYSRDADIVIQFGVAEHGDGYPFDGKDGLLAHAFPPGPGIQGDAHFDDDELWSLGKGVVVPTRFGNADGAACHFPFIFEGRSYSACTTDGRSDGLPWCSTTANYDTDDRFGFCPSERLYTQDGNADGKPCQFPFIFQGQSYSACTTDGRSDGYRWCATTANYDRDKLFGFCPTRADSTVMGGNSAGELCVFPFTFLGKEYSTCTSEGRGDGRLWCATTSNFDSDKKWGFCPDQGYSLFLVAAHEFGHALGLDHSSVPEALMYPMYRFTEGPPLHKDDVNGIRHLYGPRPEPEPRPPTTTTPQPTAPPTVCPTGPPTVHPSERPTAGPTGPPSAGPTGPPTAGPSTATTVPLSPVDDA

binding result | Binder
binds | B13
binds | B14
binds | B15
binds | B16
binds | B17
binds | B18
binds | B19
binds | B20
binds | B21
binds | B22
binds | B23

biological target: T3, recombinant full-length proMMP-9 (human, UniProt P14780 20-707); assay: as above; details: both partners purified
T3 construct: matrix metalloprotease-9 proenzyme, human, full-length; pre domain cleaved off, the mature proenzyme is 20-707; also called rpMMP-9; source: Sf9, baculovirus, purified (gelatin-Sepharose)

binding result | Binder
binds | B13
binds | B14
binds | B15
binds | B24
binds | B16
binds | B17
binds | B18
binds | B19
binds | B20
binds | B21
binds | B22
binds | B23

biological target: T4, proMMP-9 purified from THP-1 cells (human (endogenous in THP-1), UniProt P14780 20-707); assay: as above; details: both partners purified
T4 construct: matrix metalloprotease-9 proenzyme, human; pre domain cleaved off, the mature proenzyme is 20-707; the preparation holds a small amount of TIMP-1; monomer and reduction-sensitive homomultimer; also called pMMP-9; promatrix metalloprotease-9; source: purified from conditioned medium of PMA-stimulated THP-1 cells (Q-Sepharose pass-through, gelatin-Sepharose)
T4 sequence (P14780 20-707): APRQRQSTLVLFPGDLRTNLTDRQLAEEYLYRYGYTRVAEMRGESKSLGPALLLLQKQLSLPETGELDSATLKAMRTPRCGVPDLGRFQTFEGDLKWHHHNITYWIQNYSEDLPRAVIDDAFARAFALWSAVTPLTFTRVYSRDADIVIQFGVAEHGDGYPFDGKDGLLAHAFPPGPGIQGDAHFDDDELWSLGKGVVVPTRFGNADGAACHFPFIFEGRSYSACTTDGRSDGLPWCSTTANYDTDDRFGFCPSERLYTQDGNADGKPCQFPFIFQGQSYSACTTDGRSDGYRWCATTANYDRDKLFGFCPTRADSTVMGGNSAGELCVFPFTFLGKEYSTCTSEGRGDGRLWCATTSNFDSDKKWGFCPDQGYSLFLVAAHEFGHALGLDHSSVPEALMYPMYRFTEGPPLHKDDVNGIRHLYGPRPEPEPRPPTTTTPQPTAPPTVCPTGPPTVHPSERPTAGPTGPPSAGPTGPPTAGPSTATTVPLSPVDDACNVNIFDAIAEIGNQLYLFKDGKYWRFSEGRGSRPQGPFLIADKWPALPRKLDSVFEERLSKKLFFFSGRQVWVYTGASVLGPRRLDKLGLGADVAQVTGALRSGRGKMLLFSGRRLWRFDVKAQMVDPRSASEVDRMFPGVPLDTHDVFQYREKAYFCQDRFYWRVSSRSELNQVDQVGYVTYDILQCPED

binding result | Binder
binds | B13
binds | B14
binds | B15
binds | B24
binds | B16
binds | B17
binds | B18
binds | B19
binds | B20
binds | B21
binds | B22
binds | B23
